Data taken from the supplement of paper PMC10567573.

B1: VPS39 (parent)
chain: TTLLKCYLHTNVALVAPLLRLENN
B2: RAD54B (parent)
chain: YVQEKRDGLKRRQQLEEELLRAKI

Variants of: B1
Experiment: protein stability index of a GFP-peptide fusion (GPS, HEK-293T) (PSI 1-6); higher = more stable
Settings: c terminus: a fixed tail appended
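Further: lentivirally expressed fusions sorted by FACS into six bins by GFP to DsRed ratio, PSI derived from sequencing read proportions per bin multiplied by bin number.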

Variant	protein stability index
TTLLKCYLHTNTALVAPLLRLENN [V12T]	3.04
TTLLKCYLHTNVALVWPLLRLENN [A16W]	1.72
TTLLKCYLHTNVALVHPLLRLENN [A16H]	3.78
TTLLKCYLHTNVALVDPLLRLENN [A16D]	3.39
TTLLKCYLHTNVALVPPLLRLENN [A16P]	3.28
TTLLKCYLHTNVALVGPLLRLENN [A16G]	2.87
TTLLKCYLHTNVALVEPLLRLENN [A16E]	2.57
TTLLKCYLHTNVALVTPLLRLENN [A16T]	2.94
TTLLKCYLHTDVALVAPLLRLENN [N11D]	4
TTLLKCYLHTHVALVAPLLRLENN [N11H]	3.65
TTLLKCYLHTGVALVAPLLRLENN [N11G]	1.33
TTLLKEYLHTNVALVAPLLRLENN [C6E]	2.38
TTLLKQYLHTNVALVAPLLRLENN [C6Q]	3.64
TTLLKCHLHTNVALVAPLLRLENN [Y7H]	3.18
TTLLKCVLHTNVALVAPLLRLENN [Y7V]	2.59
TTLLKCFLHTNVALVAPLLRLENN [Y7F]	2.26
TTLLKCELHTNVALVAPLLRLENN [Y7E]	1.73
TTLRKCYLHTNVALVAPLLRLENN [L4R]	2.48
TTLTKCYLHTNVALVAPLLRLENN [L4T]	2.83
TTLMKCYLHTNVALVAPLLRLENN [L4M]	3.92
TTLNKCYLHTNVALVAPLLRLENN [L4N]	1.25
TTLHKCYLHTNVALVAPLLRLENN [L4H]	2.36
TTLFKCYLHTNVALVAPLLRLENN [L4F]	3.81
TTLWKCYLHTNVALVAPLLRLENN [L4W]	1.78
TTLLKCYLPTNVALVAPLLRLENN [H9P]	1.59
TTLLKCYLYTNVALVAPLLRLENN [H9Y]	1.63

Variants of: B2
Experiment: as above
Settings: c terminus: a fixed tail appended

Variant	protein stability index
YVQEKRDGLKRRQQLEEELLRAPI [K23P]	2.63
YVQEKRDGLKRRQQLEEELLRAII [K23I]	1.73
YVQEKRDGLKRRQQLEEELLRAAI [K23A]	1.78
YVQEKRDGLKRRQQLEEELLRALI [K23L]	3.08
YVQEKRDGLKRRQQLEEELLRAQI [K23Q]	1.59
YVQEKRDGLKRRQQLFEELLRAKI [E16F]	2.74
YVQEKRDGLKRRQQLPEELLRAKI [E16P]	1.56
YVQEKRDGLKRRQPLEEELLRAKI [Q14P]	1.99
YVQEKRDGLKRRQDLEEELLRAKI [Q14D]	2.2
YVQEKRDGPKRRQQLEEELLRAKI [L9P]	2.36
YVQEKRDGKKRRQQLEEELLRAKI [L9K]	1.98
YGQEKRDGLKRRQQLEEELLRAKI [V2G]	4.12
YVQEKRDGLKRRQQLEEHLLRAKI [E18H]	2.29
YVQEKRDGLKRRQQLEEKLLRAKI [E18K]	1.95
YVQEFRDGLKRRQQLEEELLRAKI [K5F]	2.49
YVQEYRDGLKRRQQLEEELLRAKI [K5Y]	2.4
YVQGKRDGLKRRQQLEEELLRAKI [E4G]	2.13
YVQHKRDGLKRRQQLEEELLRAKI [E4H]	1.6
YVQEKRDGLDRRQQLEEELLRAKI [K10D]	2.04
YVQEKRDGLIRRQQLEEELLRAKI [K10I]	1.97
YVQEKSDGLKRRQQLEEELLRAKI [R6S]	1.75
YVQEKGDGLKRRQQLEEELLRAKI [R6G]	2.39
YVQEKADGLKRRQQLEEELLRAKI [R6A]	2.26

Variant	protein stability index
YVQEKRDRLKRRQQLEEELLRAKI [G8R]	2.28
YVQEKRDSLKRRQQLEEELLRAKI [G8S]	1.99
YVQEKRDMLKRRQQLEEELLRAKI [G8M]	2.29
YVQEKRDGLKRRQQLENELLRAKI [E17N]	2
YVQEKRDGLKRRQQLEYELLRAKI [E17Y]	1.36
YVQEKRDGLKRRKQLEEELLRAKI [Q13K]	1.46
YVQEKRDGLKRRRQLEEELLRAKI [Q13R]	1.71
YVQEKRDGLKRRDQLEEELLRAKI [Q13D]	2.3
YVQEKRDGLKRMQQLEEELLRAKI [R12M]	2.02
YVQEKRDGLKRHQQLEEELLRAKI [R12H]	2.18
YVQEKRDGLKRAQQLEEELLRAKI [R12A]	1.85
YVQEKRDGLKRTQQLEEELLRAKI [R12T]	2.19
YVQEKRDGLKRSQQLEEELLRAKI [R12S]	2.06
YVQEKRDGLKRCQQLEEELLRAKI [R12C]	2.25
YVQEKRDGLKRRQQLEEERLRAKI [L19R]	2.38
YVQEKRDGLKRRQQLEEEVLRAKI [L19V]	1.7
YVQEKRDGLKRRQQLEEELLRAKM [I24M]	2.05
YVQEKRDGLKRRQQLEEELLRAKE [I24E]	2.17
YVQEKRDGLKRRQQLEEELLRAKD [I24D]	2.73
YVQEKRDGLKRRQQLEEELLRAKC [I24C]	1.75
YVQEKRDGLKRRQQLEEELLRAKK [I24K]	1.87
YVCEKRDGLKRRQQLEEELLRAKI [Q3C]	2.01
YVLEKRDGLKRRQQLEEELLRAKI [Q3L]	1.75

Variant	protein stability index
YVSEKRDGLKRRQQLEEELLRAKI [Q3S]	1.75
YVAEKRDGLKRRQQLEEELLRAKI [Q3A]	1.98
YVQEKRDGLKPRQQLEEELLRAKI [R11P]	2.25
YVQEKRDGLKMRQQLEEELLRAKI [R11M]	2.07
YVQEKRDGLKRRQQLEEELLIAKI [R21I]	2.16
YVQEKRDGLKRRQQLEEELLPAKI [R21P]	2.32
YVQEKRDGLKRRQQLEEELLCAKI [R21C]	1.87
YVQEKRDGLKRRQQLEEELLKAKI [R21K]	2.19
YVQEKRDGLKRRQQLEEELRRAKI [L20R]	2.18
YVQEKRDGLKRRQQLEEELDRAKI [L20D]	1.97
YVQEKRDGLKRRQQLEEELMRAKI [L20M]	1.78
YVQEKRDGLKRRQQHEEELLRAKI [L15H]	2.38
YVQEKRDGLKRRQQNEEELLRAKI [L15N]	2.05
YVQEKRDGLKRRQQGEEELLRAKI [L15G]	1.75
YVQEKRDGLKRRQQLEEELLRLKI [A22L]	1.99
YVQEKRDGLKRRQQLEEELLRWKI [A22W]	2
YVQEKRDGLKRRQQLEEELLRSKI [A22S]	2.16
YVQEKRDGLKRRQQLEEELLRFKI [A22F]	2.06
AVQEKRDGLKRRQQLEEELLRAKI [Y1A]	3.7
WVQEKRDGLKRRQQLEEELLRAKI [Y1W]	3.92
IVQEKRDGLKRRQQLEEELLRAKI [Y1I]	3.14
RVQEKRDGLKRRQQLEEELLRAKI [Y1R]	3.77
